# Source: IntAct's records for PubMed 28497574
# B1: Methylmalonic aciduria type A protein, mitochondrial (Homo sapiens), Q8IVH4 (parent)
# chain: MPMLLPHPHQHFLKGLLRAPFRCYHFIFHSSTHLGSGIPCAQPFNSLGLHCTKWMLLSDGLKRKLCVQTTLKDHTEGLSDKEQRFVDKLYTGLIQGQRACLAEAITLVESTHSRKKELAQVLLQKVLLYHREQEQSNKGKPLAFRVGLSGPPGAGKSTFIEYFGKMLTERGHKLSVLAVDPSSCTSGGSLLGDKTRMTELSRDMNAYIRPSPTRGTLGGVTRTTNEAILLCEGAGYDIILIETVGVGQSEFAVADMVDMFVLLLPPAGGDELQGIKRGIIEMADLVAVTKSDGDLIVPARRIQAEYVSALKLLRKRSQVWKPKVIRISARSGEGISEMWDKMKDFQDLMLASGELTAKRRKQQKVWMWNLIQESVLEHFRTHPTVREQIPLLEQKVLIGALSPGLAADFLLKAFKSRD
# partner: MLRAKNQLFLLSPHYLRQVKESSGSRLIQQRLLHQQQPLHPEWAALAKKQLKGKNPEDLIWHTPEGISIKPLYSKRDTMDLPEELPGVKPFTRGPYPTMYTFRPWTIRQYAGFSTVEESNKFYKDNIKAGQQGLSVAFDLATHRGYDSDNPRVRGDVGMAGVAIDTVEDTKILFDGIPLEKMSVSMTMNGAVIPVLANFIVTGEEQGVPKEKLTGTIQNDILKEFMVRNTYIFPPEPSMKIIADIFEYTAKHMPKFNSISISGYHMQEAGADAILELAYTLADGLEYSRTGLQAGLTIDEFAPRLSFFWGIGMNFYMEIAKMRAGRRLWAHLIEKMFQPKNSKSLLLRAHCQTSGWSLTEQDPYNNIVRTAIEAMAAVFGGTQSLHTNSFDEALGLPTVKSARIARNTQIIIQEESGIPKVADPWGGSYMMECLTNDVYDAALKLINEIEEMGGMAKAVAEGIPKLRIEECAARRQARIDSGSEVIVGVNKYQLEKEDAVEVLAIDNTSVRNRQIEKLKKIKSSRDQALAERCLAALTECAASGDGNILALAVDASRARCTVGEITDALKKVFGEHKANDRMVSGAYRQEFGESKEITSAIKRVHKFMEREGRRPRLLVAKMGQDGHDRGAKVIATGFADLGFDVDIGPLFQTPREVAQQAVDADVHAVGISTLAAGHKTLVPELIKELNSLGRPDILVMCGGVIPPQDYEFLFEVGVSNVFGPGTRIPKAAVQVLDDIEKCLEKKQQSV
# Variants of: B1
# Details: with muta_human MMUT
row,effect of a mutation on the interaction,Variant
1,disrupting interaction strength,D292V
2,with no effect,R196Q
3,disrupting interaction strength,V220M
4,decreasing interaction strength,G192D
5,decreasing interaction strength,R359G
6,disrupting interaction strength,R209S

# The next lines start with the variant.
row,Variant,effect of a mutation on the interaction
1,G274S,decreasing interaction strength
2,K276E,decreasing interaction strength
3,G147E,disrupting interaction strength
4,E250K,decreasing interaction strength
5,G218E,disrupting interaction strength
6,R98G,disrupting interaction strength
7,Y207C,disrupting interaction strength
8,G188R,disrupting interaction strength

# Variants of: B1
# Details: with muta_human MMUT
# Remark: another data set of the same source
row,effect of a mutation on the interaction,Variant
1,disrupting interaction strength,T243N
